Consider 14 molecules from patent US20040133357A1 (ABMAXIS, published 2004).

The chains are these.
B1: hAB5 (scFv)
scFv: EVQLVQSGGGVVQPGGTLRLTCAASGYTFTNYGMNWVRQAPGKGLEWVGWINTYTGEPTYAADFKRRVTFSLDTSKSTAYLQMNSLRAEDTAVYYCAKYPHYYGSSHWYFDVWGQGTLVTVSSGGGGSGGGGSGGGGSDIQMTQSPSSLSASVGDRVTITCSASQDISNYLNWYQQKPGKAPKVLIYFTSSLHSGVPSRFSGSGSGTDFTLTISSLQPEDFATYYCQQYSTVPWTFGQGTKVEIK
notes: Single chain format; not shown: HA-His6 tag at C-terminus
B2: hAB10 (scFv)
scFv: EVQLVESGGGLVQPGGSLRLSCAASGYTFTNYGMNWVRQAPGKGLEWVGWINTYTGEPTYAADFKRRFTFSLDTSKSTAYLQMNSLRAEDTAVYYCAKYPYYYGTSHWYFDVWGQGTLVTVSSGGGGSGGGGSGGGGSDIQMTQSPSSLSASVGDRVTITCSASQDISNYLNWYQQKPGKAPKVLIYFTSSLHSGVPSRFSGSGSGTDFTLTISSLQPEDFATYYCQQYSTVPWTFGQGTKVEIK
notes: as for B1
B3: hAB11 (scFv)
scFv: EVQLVESGGGLVQPGGSLRLSCAASGYTFTNYGMNWVRQAPGKGLEWVGWINTYTGEPTYAADFKRRFTFSLDTSKSTAYLQMNSLRAEDTAVYYCAKYPHYYGRSHWYFDVWGQGTLVTVSSGGGGSGGGGSGGGGSDIQMTQSPSSLSASVGDRVTITCSASQDISNYLNWYQQKPGKAPKVLIYFTSSLHSGVPSRFSGSGSGTDFTLTISSLQPEDFATYYCQQYSTVPWTFGQGTKVEIK
notes: as for B1
B4: hAB9 (scFv)
scFv: EVQLVQSGGGVVQPGGSLRLSCAASGYTFTNYGMNWVRQAPGKGLEWVGWINTYTGEPTYAADFKRRFTFSLDTSKSTAYLQMNSLRAEDTAVYYCAKYPYYYGRSHWYFDVWGQGTLVTVSSGGGGSGGGGSGGGGSDIQLTQSPSSLSASAGDRVTISCSASQDISNYLNWYQQKPGKAPQLLIYFTSSLHSGVPSRFSGSGSGTDFTLTISSLQPEDFATYYCQQYSTVPWTFGQGTKVEIK
notes: as for B1
B5: hAB14 (scFv)
scFv: EVQLVQSGGGVVQPGGSLRLSCAASGYTFTNYGMNWIRQAPGKGLEWVGWINTYTGEPTYAADFKRRVTFSLDTSKSTAYLQLNSLRAEDTAVYYCAKYPYYYGRSHWYFDVWGQGTLVTVSSGGGGSGGGGSGGGGSAIRMTQSPSSVSASVGDTVTIACRASQAIRNDLTWYQQKPGTAPKLLIYGATTLQSGVPSRFSGSGSGTDFTLTISSLQPEDFATYYCQQSSTTPWTFGQGTKVDIK
notes: as for B1
B6: hAB35 (scFv)
scFv: EVQLVQSGGGVVQPGGSLRLSCAASGYDFTHFGLNWIRQAPGKGPEWVGWINTYTGEPTYAQDFKRRVTFSLDTSKSTAYLQLNSLRAEDTAVYYCAKYPYYYGRSHWYFDVWGQGTLVTVSSGGGGSGGGGSGGGGSDIVMTQSPSTLSASPGERATITCNASQSIGSYLAWYQQKPGQAPKVLIYGASNLASGVPSRFSGSRSGTDFTLTISSLQPEDFAVYYCQQYNSTPWTFGGGTKLEIK
notes: as for B1
B7: hAB36 (scFv)
scFv: EVQLVQSGGGVVQPGGSLRLSCAASGYDLSHYGLNWIRQAPGKGPEWVGWINTYTGEPTYAPDFTRRVTFSLDTSKSTAYLQLNSLRAEDTAVYYCAKYPYYYGRSHWYFDVWGQGTLVTVSSGGGGSGGGGSGGGGSDIVMTQSPSTLSASPGERATITCNASQSIGSYLAWYQQKPGQAPKVLIYGASNLASGVPSRFSGSRSGTDFTLTISSLQPEDFAVYYCQQYNSTPWTFGGGTKLEIK
notes: as for B1
B8: hAB39 (scFv)
scFv: EVQLVQSGGGVVQPGGSLRLSCAASGYDFTHFGLNWVRQAPGKGLEWVGWVNTYTGETTYAHEFKRRVTFSLDTSKSTAYLQLNSLRAEDTAVYYCAKYPYYYGRSHWYFDVWGQGTLVTVSSGGGGSGGGGSGGGGSDIVMTQSPSTLSASPGERATITCNASQSIGSYLAWYQQKPGQAPKVLIYGASNLASGVPSRFSGSRSGTDFTLTISSLQPEDFAVYYCQQYNSTPWTFGGGTKLEIK
notes: as for B1
B9: hAB38 (scFv)
scFv: EVQLVQSGGGVVQPGGSLRLSCAASGYNFSHFGLNWLRQAPGKGPEWVGWINTYTGEPTYAPEFKRRVTFSLDTSKSTAYLQLNSLRAEDTAVYYCAKYPYYYGRSHWYFDVWGQGTLVTVSSGGGGSGGGGSGGGGSDIVMTQSPSTLSASPGERATITCNASQSIGSYLAWYQQKPGQAPKVLIYGASNLASGVPSRFSGSRSGTDFTLTISSLQPEDFAVYYCQQYNSTPWTFGGGTKLEIK
notes: as for B1
B10: hAB37 (scFv)
scFv: EVQLVQSGGGVVQPGGSLRLSCAASGYNFSHFGLNWLRQAPGKGLEWVGWINTYNGETTYAPDFKRRVTFSLDTSKSTAYLQLNSLRAEDTAVYYCAKYPYYYGRSHWYFDVWGQGTLVTVSSGGGGSGGGGSGGGGSDIVMTQSPSTLSASPGERATITCNASQSIGSYLAWYQQKPGQAPKVLIYGASNLASGVPSRFSGSRSGTDFTLTISSLQPEDFAVYYCQQYNSTPWTFGGGTKLEIK
notes: as for B1
B11: hAB16 (scFv)
scFv: EVQLVQSGGGVVQPGGSLRLSCAASGYTFTNYGMNWIRQAPGKGLEWVGWINTYTGEPTYAADFKRRVTFSLDTSKSTAYLQLNSLRAEDTAVYYCAKYPYYYGRSHWYFDVWGQGTLVTVSSGGGGSGGGGSGGGGSDIVMTQSPSTLSASPGERATITCNASQSIGSYLAWYQQKPGQAPKVLIYGASNLASGVPSRFSGSRSGTDFTLTISSLQPEDFAVYYCQQYNSTPWTFGGGTKLEIK
notes: as for B1
B12: hAB15 (scFv)
scFv: EVQLVQSGGGVVQPGGSLRLSCAASGYTFTNYGMNWIRQAPGKGLEWVGWINTYTGEPTYAADFKRRVTFSLDTSKSTAYLQLNSLRAEDTAVYYCAKYPYYYGRSHWYFDVWGQGTLVTVSSGGGGSGGGGSGGGGSDIVMTQSPSTLSASPGERATITCHASQSISTYLAWYQQKPGQAPRVLIYGASNLASGVPNRFSGSGSGTDFTLTISSLQPEDFAVYYCQQYNSAPWTFGGGTKVEIK
notes: as for B1
B13: hAB8 (scFv)
scFv: EVQLVQSGGGVVQPGGSLRLSCAASGYTFTNYGMNWIRQAPGKGLEWVGWINTYTGEPTYAADFKRRVTFSLDTSKSTAYLQLNSLRAEDTAVYYCAKYPYYYGRSHWYFDVWGQGTLVTVSSGGGGSGGGGSGGGGSDIQMTQSPSSLSASVGDRVTITCSASQDISNYLNWYQQKPGKAPKVLIYFTSSLHSGVPSRFSGSGSGTDFTLTISSLQPEDFATYYCQQYSTVPWTFGQGTKVEIK
notes: as for B1
B14: hAB7 (scFv)
scFv: EVQLVQSGGGVVQPGGSLRLSCAASGYTFTNYGMNWVRQAPGKGLEWVGWINTYTGEPTYAADFKRRFTFSLDTSKSTAYLQMNSLRAEDTAVYYCAKYPYYYGRSHWYFDVWGQGTLVTVSSGGGGSGGGGSGGGGSDIQMTQSPSSLSASVGDRVTITCSASQDISNYLNWYQQKPGKAPKVLIYFTSSLHSGVPSRFSGSGSGTDFTLTISSLQPEDFATYYCQQYSTVPWTFGQGTKVEIK
notes: as for B1

The first assay deals with T1, purified recombinant human VEGF165 (human, UniProt P15692 27-191, glycosylated).
T1 construct: mature; Bought from Calbiochem; also called VEGF protein (Calbiochem); homodimeric VEGF protein
T1 sequence (P15692 other isoform, or with tags, fused parts or gaps limits assumed): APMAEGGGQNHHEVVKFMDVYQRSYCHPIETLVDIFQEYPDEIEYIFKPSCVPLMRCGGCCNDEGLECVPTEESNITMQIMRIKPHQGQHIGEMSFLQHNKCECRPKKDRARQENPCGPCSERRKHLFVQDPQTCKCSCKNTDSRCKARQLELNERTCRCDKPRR
The assay is described as follows: SPR (BIAcore), purified scFv over VEGF immobilized on CM5 chip, 25 C. The protocol: Antibody fragments in the format of single chain were expressed as described below and purified. The measurement was done by measuring the change of SPR units (y-axis) vs time (x-axis) when a purified antibody binds its antigen (VEGF) immobilized on the CM5 biochip at 25° C. Kd values were calculated by the […].
(§1) BIAcore Biosensor Assay was used to determine antibody affinity. VEGF protein (purchased from Calbiochem) was coupled to a CM-5 biosensor ship by amine coupling. After immobilization, CM-5 chips with 200 to 1000 response unites of VEGF were kept at 4° C. before use. All experiments were performed at 25° C. or 35° C. Each sample in PBS buffer was injected over VEGF surface at a flow rate of 20 ul/min using Biacore 1000 (Biacore AB, Sweden), and bound antibodies were removed from chip by 10 ul of glycine-HCl, PH 1.5 at the end of each cycle. Each sensorgram was recorded and normalized to a PBS base line.
For orientation: Surface plasmon resonance follows binding to a sensor surface in real time, without labels.
One may read the Kd as the concentration at which binding is half-saturated. In general, koff refers to the rate constant with which the complex falls apart. For orientation: kon means a measure of how fast the partners come together. As for B1, the equilibrium dissociation constant (Kd) was determined as 5.9 nM, the “hAB1 Kd/Variant Kd” value amounted to 2.2, the koff stood at 7.2e-05 s⁻¹ and the on-rate constant (kon) stood at 12200 M⁻¹ s⁻¹.
With B2, the equilibrium dissociation constant (Kd) worked out at 2.2 nM, the “hAB1 Kd/Variant Kd” value was 6.3, the koff amounted to 3e-06 s⁻¹ and the kon amounted to 1100 M⁻¹ s⁻¹.
B3: the Kd was found to be 5.4 nM, the “hAB1 Kd/Variant Kd” value worked out at 2.6, the dissociation rate constant (koff) came to 8.7e-05 s⁻¹ and the association rate constant (kon) was 15900 M⁻¹ s⁻¹.
As for B4, the dissociation constant Kd worked out at 4.9 nM, the “hAB1 Kd/Variant Kd” value is 2.7, the koff amounted to 1.4e-05 s⁻¹ and the kon came to 2900 M⁻¹ s⁻¹.

The target of the next assay is T1, purified recombinant human VEGF165. Briefly: SPR (BIAcore), purified scFv over VEGF immobilized on CM5 chip, 35 C. The protocol: Antibody fragments in the format of single chain were expressed as described below and purified. The measurement was done by measuring the change of SPR units (y-axis) vs time (x-axis) when a purified antibody binds its antigen (VEGF) immobilized on the CM5 biochip at 35° C. Kd values were calculated by the […].
as §1
On to B5, for which the equilibrium dissociation constant (Kd) is 3.6 nM, the “hAB1 Kd/Variant Kd” value is 11.5, the koff was determined as 6.2e-05 s⁻¹ and the on-rate (kon) is 17100 M⁻¹ s⁻¹.
The corresponding values for B6 are 0.7 nM, 59.1, 6.2e-05 s⁻¹ and 82800 M⁻¹ s⁻¹.
In the case of B7, the dissociation constant (Kd) came out at 0.7 nM, the “hAB1 Kd/Variant Kd” value was 59.1, the dissociation rate constant (koff) is 3.7e-05 s⁻¹ and the kon is 47500 M⁻¹ s⁻¹.
For B8 the same measures were 1.8 nM, 23, 4.8e-05 s⁻¹ and 28400 M⁻¹ s⁻¹.
As for B9, the equilibrium dissociation constant (Kd) turned out to be 0.9 nM, the “hAB1 Kd/Variant Kd” value is 46, the dissociation rate constant (koff) came to 4.8e-05 s⁻¹ and the kon worked out at 50000 M⁻¹ s⁻¹.
The corresponding values for B10 are 0.8 nM, 51.8, 4.4e-05 s⁻¹ and 57300 M⁻¹ s⁻¹.
In the case of B11, the Kd came to 1.6 nM, the “hAB1 Kd/Variant Kd” value turned out to be 25.9, the koff is 4.7e-05 s⁻¹ and the kon came out at 29300 M⁻¹ s⁻¹.
Regarding B12, the equilibrium dissociation constant (Kd) is 3.7 nM, the “hAB1 Kd/Variant Kd” value came out at 11.2, the koff came to 8.6e-05 s⁻¹ and the association rate constant (kon) worked out at 23400 M⁻¹ s⁻¹.
As to B13, the Kd came to 1.1 nM, the “hAB1 Kd/Variant Kd” value was 37.6, the off-rate (koff) was determined as 1.7e-05 s⁻¹ and the kon was 15800 M⁻¹ s⁻¹.
Take B14: the Kd was determined as 1.1 nM, the “hAB1 Kd/Variant Kd” value was 37.6, the koff was 9e-06 s⁻¹ and the on-rate constant (kon) was 8500 M⁻¹ s⁻¹.
